This is an account of results in the DeepSol protein solubility set.

The series in a line: soluble on expression in E. coli; label from the status in PepcDB or PDB records.
“MDNQISVPPALTGNYAFFFDLDGTLADIQPHPDQVVIPDSTLQALNALAQQQGGAVALISGRSMAELDALTHPWRLPLAGVHGAERRDINGKTYIVSLPTALRDEIAAELTSALEALPGCELESKEMAFALHYRQAPQQQSAVLELAQRIVQRYPLLALQLGKCVVEIKPRGVNKGEAITAFMQEAPFAGREPVFVGDDLTDEAGFSVVNQLQGMSVKVGAGETQAHWRLADAAAVRTWLQHLAYDAQTERRDDHESFSRSL”: the “soluble on expression in E. coli” value was “not soluble”.
Under “MDNRVREACQYISDHLADSNFDIASVAQHVCLSPSRLSHLFRQQLGISVLSWREDQRISQAKLLLSTTRMPIATVGRNVGFDDQLYFSRVFKKCTGASPSEFRAGCE” stands “soluble”; under “MDPKFQRVALSDGHFIPVLGFGTYAPEEVPKSKAMEATKIAIDAGFRHIDSAYFYKNEKEVGLAIRSKIADGTVKREDIFYTSKLWCTFHRPELVRPSLEDSLKNLQLDYVDLYIIHFPTALKPGVEIIPTDEHGKAIFDTVDICATWEAMEKCKDAGLAKSIGVSNFNRRQLEMILNKPGLKYKPVCNQVECHPYLNQGKLLEFCKSKGIVLVAYSALGSHREPEWVDQSAPVLLEDPLIGALAKKHQQTPALIALRYQLQRGIVVLAKSFTEKRIKENIQVFEFQLPSEDMKVIDSLNRNFRYVTADFAIGHPNYPFSDEY”, “soluble”; under “MDPLSAASKIAGSGLEVQSTRLRIVSENIANARSTGDTPGADPYRRKTVTFGSELDHVSGVERVKVKKLGVDRGDFVHEYDPGNPAADTNGMVKMPNVNVLIEMADMREANRSYDANLQVIRQTRDLVASTIDLLKASQ”, “not soluble”.
Take “MDPLSWLYARQGRFAPGLERIRAFLARLGHPEEAYPVALVGGTNGKGTTARALAAILEEAGFRVGLYTSPHLVDFRERIQVQGRPIPEEKLLALLAELRPHAERLEASFFEVATALALLHFAREGVEFAVLEVGLGGRLDATNATEPVLSVVTNVGHDHLEVLGPTLKDVAREKAGIFRGGVPALTAARGEGLGVLRAEALGRKNPPWVLGEDFHAEGVEALPQGLAFTLRLERTGEALRLTARLLGPHQAENLALAALSGRLLGAGWEAVKRGVARAENPGRLQRLLWRGRELLLDGAHNPEGALALREALRFHGLLPAAFVLGFSRDKDHAAMAEALRGLGPVVLTRYASPRSEDPRALLPLFPGAKVVEDPLEALEEAFSREGRVVVAGSLYLVGEVLRRLEGLPAEERWQ”: the “soluble on expression in E. coli” value was “soluble”.
Under “MDPNQPVKFTEFMPDSGGIRTKFIVKGSNFGEDKSQVKVYFKDEVGNEREALVLGVKPDVIYAQVPKQAGGESHVRVEIAGKEAELSNAEKTFKYIVTSSVSTVVGKAKEGGNKDGTLGETTFNTPRYVAVDNDDNVFIFDSDGRTRLSSIEQNKTITLLDGMVIDQPLFIDKEKKQLFGPCDNANFGCFLFDANVSWVADKMGQLLANGGWMHSVVLDPVDSTFVIYRQNTGQLWTQPFDKNRRTLNPNKAKRIGTLYNTGSNGLCAYNPVDKYVYCVLHSKSAVYRFKLTRDADGWPALDGDIDEYIPGAGAGFRDGDVQEAQFKEPRGIAIDKEGNLYIADVGNNRIRKVDTKLNVVTTIAGSGAAGYKDGDPLEAQFNQPWGVYLDKNEFLYIADQNNHCIRKLAIELEHHHHHH” stands “not soluble”; under “MDPRQFEHTVVADNDIHSIVMSYLLHNCFNETADSLASSTGVKQPAIDRDNMERRKQIIHFILERKALKAFELTEQLAQDLLEKNKDLQFDLLCLHFVELICAGNCTEALKFGKTRLAPFGKVKKYVEKLEDVMALLAYEDPEKSPMFHLLSSEYRQQVADNLNRTILEHTNHPSYTPMERIIQQVTVVRQYLTEENGKDAFPPFSLKDSLKG”, “soluble”.
In the case of “MDQIFNKVGSYWLGQKANKQFDSVGNDLNSVSTSIEGGTKWLVNKIKGKMQKPLPELLKEYDLPIGIFPGDATNYEFDEETKKLTVLIPSICEVGYKDSSVLKFTTTVTGHLEKGKLTDVEGIKTKVMIWVKVTSISTDASKVYFTAGMKKSRSRDAYEVQRNGLRVDKF” it was “soluble”.
Turning to “MDREAFVQTLTACRLCPRLVAWREEVVGRKRAFRGEPYWARPVPGFGDPEARILLFGLAPGAHGSNRTGRPFTGDASGAFLYPLLHEAGLSSKPESLPGDDLRLYGVYLTAAVRCAPPKNKPTPEELRACARWTEVELGLLPEVRVYVALGRIALEALLAHFGLRKSAHPFRHGAHYPLPGGRHLLASYHVSRQNTQTGRLTREMFLEVLMEAKRLAGL”, the “soluble on expression in E. coli” value is on record as “soluble”.
Regarding “MDRLGSFSNDPSDKPPCRGCSSYLMEPYIKCAECGPPPFFLCLQCFTRGFEYKKHQSDHTYEIMTSDFPVLDPSWTAQEEMALLEAVMDCGFGNWQDVANQMCTKTKEECEKHYMKYFINNPLFASTLLNLKQAEEAKTADTAIPFHSTDDPPRPTFDSLLSRDMAGYMPARADFIEEFDNYAEWDLRDIDFVEDDSDILHALKMAVVDIYHSRLKERQRRKKIIRDHGLINLRKFQLMERRYPKEVQDLYETMRRFARIVGPVEHDKFIESHACRWFLSLEQYLCVYIYINRRDNGVFYVKFYK”, the “soluble on expression in E. coli” value is recorded as “soluble”.
Under “MDSQLSNRLAQVAAYVPKGVKLLDVGSDHAYLPIFLVETNQISAAIAGEVVRGPYESALKNVTQSGLAEHIQVRLANGLAAFEEADDVTAITICGMGGRLIADILEAGKEKLQGIERLVLQPNNREDDLRAWLSVNAFKIVAETIMAENDKYYEIIVAEHGEKALSATELRFGPYLSQEKSVVFKEKWQREMDKLAYALSCIPEEKTQERQLLLTKIQQIKEVIVHES” stands “not soluble”; under “MDSRTKGKTVMEVGGDGVAVITLINPPVNSLSFDVLYNLKSNYEEALSRNDVKAIVITGAKGRFSGGFDISGFGEMQKGNVKEPKAGYISIDIITDLLEAARKPSVAAIDGLALGGGLELAMACHARISAPAAQLGLPELQLGVIPGFGGTQRLPRLVGLTKALEMILTSKPVKAEEGHSLGLIDAVVPPAELVTTARRWALDIVGRRKPWVSSVSKTDKLPPLGEAREILTFAKAQTLKRAPNMKHPLMCLDAIEVGIVSGPRAGLEKEAEVASQVVKLDTTKGLIHVFFSQRGTAKVPGVTDRGLVPRKIKKVAIIGGGLMGSGIATALILSNYPVILKEVNEKFLEAGIGRVKANLQSRVRKGSMSQEKFEKTMSLLKGSLDYESFRDVDMVIEAVIENISLKQQIFADLEKYCPQHCILASNTSTIDLNKIGERTKSQDRIVGAHFFSPAHIMPLLEIVRTNHTSAQVIVDLLDVGKKIKKTPVVVGNCTGFAVNRMFFPYTQAAMFLVECGADPYLIDRAISKFGMPMGPFRLCDLVGFGVAIATATQFIENFSERTYKSMIIPLMQEDKRAGEATRKGFYLYDDKRKAKPDPELKKYIEKARSISGVKLDPKLANLSEKDIIEMTFFPVVNEACRVFAEGIAVKAADLDIAGIMGMGFPPYRGGIMFWADSIGSKYIYSRLDEWSKAYGEFFKPCAFLAERGSKGVLLSAPVKQASSRL”, “soluble”; under “MDTLDELLPREKMLRSGIASLSDVELLALFLRTGTPGKDVMTLAKEILQHFGSLYGLLSADFAQFRGVNGIGLAKFAQLKGIAELARRYYSVRMNEESALLSPEMTREFLQSQLTGEEREIFLVIFLDAQHRVLQHSRLFSGTLNHVEVHPREIVREAIKLNASAVILAHNHPSGCAEPSKADKLITERVIKCCQFMDIRVLDHLIIGRGEYVSFAERGWI”, “not soluble”.
“MDTLFSLKVFRQVVQSGGFTRAADALGISTAMASKHVSHLENTVQAKLLHRNSRNLSLTEAGEEYYRQCSYALDTLDDAAQKAAGGTEKPQGLLRVTMPLWFAGSQICNWLAEYRERYPEVALELILDNRHVDLIAEGVDLALRVSQTLSPSLIARPLAEIEFALLASPDFLRRNGVPETPEEVAGLPAVLPTYTNQQKLDLTRKSDGKKYRLELTPVIRTDNTLMMREMIKAGACIGYQPLWAAEHDLRCGTLVRLLPGYAVPTDRLNAVYADRAFLSAKVRSFIDFLNEKIASRKGCRNAV”: the “soluble on expression in E. coli” value is on record as “not soluble”.
In the case of “MDTMSQILKLLEKTDSIEINEFRMDVDELELTIMPTLQNVVQKVVEKQIEAKKEFESQIEFKYPVKDYAGKVNEVKLGGKNRKTVKLGGQTSLYRFEEPQPNAPTVTFDVFDIPMNGLPRPIKENFEDVMHSPGEWAQKAVKEFGADMITLHLIGTDPKVKDKSLKDAAKDLEEVLQAVKVPLVIGGSGNPKKDPLVLEMAAEVADGERCLLASANLDLDYQKIAQAAVKHDHAVLSWAISDINMQKVLNKALMKEGLTANDIVMDPTTCALGYGIEFSIDVMTRTRLSALKGDEILQMPMSSGTTNAWGSREAWMKKDEWGPTKYRGPIWEVVTGLTMMLCGVDIFMMLHPLSVKTLKEIGTTLTYEYKSKESQDISDWINKF”, the “soluble on expression in E. coli” value is “not soluble”.
Under “MDVFELTKKTLLAVISESSSSDDYLEALAEIEGLVKHEAAATSFQLMERGKVRELAVPKPEFYNKRRKFEDFQEKTVFDWKSEFNLKNAKKVERWTVEEKEKREKQRCFIEVEHYKKKEYLNFLYPGVHYCTCPYFQSTVLQKQTNWICVHILAYYFAKNFGKIERIECKSEIVGLVKKIFIRSIFLEEKK” stands “not soluble”; under “MDVIREYLMFNELSALSSSPESVRSRFSSIYGTNPDGIALNNETYFNAVKPPITAQYGYYCYKNVGTVQYVNRPTDINPNVILAQDTLTNNTNEPFTTTITITGSFTNTSTVTSSTTTGFKFTSKLSIKKVFEIGGEVSFSTTIGTSETTTETITVSKSVTVTVPAQSRRTIQLTAKIAKESADFSAPITVDGYFGANFPKRVGPGGHYFWFNPARDVLNTTSGTLRGTVTNVSSFDFQTIVQPARSLLDEQ”, “soluble”; under “MDVKLLAHTQLSEEFVNYLSVVFGIGDEGFDPTHGQVVALSAIRTCYSPNKPSRIVSLEGEKYFKGKATDGKGGKEVDRLIRHIVGSGHASTLEHLTYTFAVEGVSRALLAQLTRHRVGFSYSVQSQRYVRMGSNDKIGGFDYVVPETVKAKGEQVVNAYNEMMYKLQSGYDLLRTLGIPAEDARSVLPNAAATNLVLTVNLRGLLDFYNKRRKGKGAQAEIAELAEQLRQEVVKVEKWVDEFFWKWKVTEV”, “not soluble”.
Under “MDVLGALKYFRKKKKIAQKDVLPKKGKQTYRRIEIGEAKLSYEDLMTALQSLGITFNEFFFMVSDTRIMASSEVKHQIECCQMGLNNTSEKKNLIHYFYQLERNPHKNALEMSIYTDIKLTFSNDWEEIPEFDETDRMVILALISSKSYYTYYDYQMVTNPAALFSENEVLQILEQMFPVKDAELRDTQTLNVAYGFYLNIITGELYKKNYAKAREYLALVSVTTIPAEIYYIHFNLRYLKNLTYYLYTGKMRYYKEVIAVIDMIESFGDARLAEGMKKEMLQLTAGRTFNLEKGQFPLNIVTEK” stands “not soluble”; under “MDYWEWKTDGAGLEADEVCITVQHGVTLYDKNEKTQRQNGKLSLTTHHLRYNDEADISTVLQLPLELVRRSGQAPSISSGFGPFSSAKIIVPLPKNAYVKLSFRSGGVDNFYAALVGALKKKTWLQTKTEAAASGRGSSSGASPASTTPVPNSRPPPPVPRGFGIAGVQQASLQSAAMSETLKDIDDVMNKASKLVNNIRRLRERSEAAAAAGSDAGSETAVERTTIESIESTLGLGAIVTRNHSNGSDSRFYRDLAVEMHTWMTHECNSKLFNDMPVVPLIELFALYNKARGGDLVSPLDVLNACTYMAAKMSSSCYDLVTLPSGRKALVNRDDSLLLAKLTTVLGPQLVNSKGSPVQDAWTKTSSQQQQRSGDASSLVRVSTTSDFPKASRDLKSVSDVSLAEKMQVATEVAADILTLLMLKGYLCCMDTGFDCYVYTWNIFVF”, “not soluble”.
